Reference: patent US20170240633A1 (published 2017)

Each binder was assayed against T1, human TIM-3 coupled to human Fc (human, UniProt Q8TDQ0 22-200, limits assumed) (assay: ELISA on plate-coated human TIM-3 coupled to human Fc).
T1 construct: Antigen coated on ELISA plates and immobilised on the SPR chip; not shown: human Fc

Binder	binding result
anti-TIM-3 antibody clone A11 (antibody, V domains shown, ELISA and SPR are described for Fab; The format in each assay is not clearly stated) VH: QVQLQQWGAGLLKPSETLSLTCAVYGGSFSGYYWSWIRQPPGKGLEWIGEINHSGSTNYNPSLKSRVTISVDTSKNQFSLKLSSVTAADTAVYYCARGYVAGFDYWGQGTLVTVSS VL: QSVVTQPPSVSAAPGQKVTISCSGSSSNIGNNYVSWYQQLPGTAPKLLIYGNNWRPSGIPDRFSGSKSGTSATLAISGLQTGDEADYYCETWDSSLSAGVFGGGTKLTVL	binds
anti-TIM-3 antibody clone G6 (antibody, V domains shown, ELISA and SPR are described for Fab; The format in each assay is not clearly stated) VH: QVQLQESGPGLVKPSGTLSLTCAVSGGSISSSNWWSWVRQPPGKGLEWIGEIYHSGSTNYNPSLKSRVTISVDKSKNQFSLKLSSVTAADTAVYYCARVVAVAGTVDYWGQGTLVTVSS VL: not shown	binds
anti-TIM-3 antibody clone B10 (antibody, V domains shown, ELISA and SPR are described for Fab; The format in each assay is not clearly stated) VH: QVQLQESGPGLVKASETLSLTCTVSGGSIGSSDYYWGWIRQPPGKGLEWIGSIYYSGSTYYNPSLKSRVTMSVDTPNNQFSLKLSSVTAADTAVYYCARGEHRGEFDYWGQGTLVTVSS VL: EIVLTQSPATLSFSPGERATLSCRASQSVGSYLAWYQQRPGQAPRPLIYDATNRATGIPTRFSGSGSGTDFTLTISSLEPEDFATYYCQHRRTFGRGTKLEIK	binds
anti-TIM-3 antibody clone G7 (antibody, V domains shown, ELISA and SPR are described for Fab; The format in each assay is not clearly stated) VH: EVQLVQSGAEVKKPGASVKVSCKASGYTFTSYYMHWVRQAPGQGLEWMGIINPSGGSTSYAQKFQGRVTMTRDTSTSTVYMELSSLRSEDTAVYYCARDQYSSGWYYYGMDVWGQGTTVTVSS VL: not shown	binds
anti-TIM-3 antibody clone G9 (antibody, V domains shown, ELISA and SPR are described for Fab; The format in each assay is not clearly stated) VH: QVQLQQSGAEVKKPGASVKVSCKASGYTFTSYYMHWVRQAPGQGLEWMGIINPSGGSTSYAQKFQGRVTMTRDTSTSTVYMELSSLRSEDTAVYYCARDLYSYGFYYYGMDVWGQGTTVTVSS VL: not shown	binds
anti-TIM-3 antibody clone A3 (antibody, V domains shown, From a human phage display library; ELISA screening used Fab-containing supernatants and SPR speaks of 'each candidate Fab'; The format in each assay is not clearly stated) VH: QVQLVQSGAEVKKPGASVKVSCKASGYTFTSYYMHWVRQAPGQGLEWMGIINPSGGSTSYAQKFQGRVTMTRDTSTSTVYMELSSLRSEDTAVYYCARSPGVVTALFDYWGQGTLVTVSS VL: DIQMTQSPSFMSASVGDRVTITCRASQDIGSYLAWYQQKPGKAPKLLIYAASTLQSGVPSRFSGSGSGTDFTLTINSLQPEDFATYYCQQSYSSPPTFGPGTTLEIK	binds
